Source: publication PMC3521757, “Spastin's Microtubule-Binding Properties and Comparison to Katanin” (PLoS ONE, 2012)

Legend:
[1] = molecular target: microtubules (native, from pig brain tubulin) (pig) (UniProt P02550); assay: co-sedimentation; constant microtubule concentration (1 µM for spastin, 2 µM for katanin), increasing enzyme; 1 mM ATP-γS; BRB80, room temperature, 100,000 g; stoichiometry by extrapolation of the saturation curve
[2] = molecular target: microtubules (native, from pig brain tubulin) (pig) (UniProt P02550); assay: co-sedimentation; constant microtubule concentration (1 µM for spastin, 2 µM for katanin), increasing enzyme; 1 mM ATP; BRB80, room temperature, 100,000 g; stoichiometry by extrapolation of the saturation curve
[3] = molecular target: microtubules (native, from pig brain tubulin) (pig) (UniProt P02550); assay: co-sedimentation; constant microtubule concentration (1 µM for spastin, 2 µM for katanin), increasing enzyme; 1 mM ADP; BRB80, room temperature, 100,000 g; stoichiometry by extrapolation of the saturation curve
[4] = molecular target: microtubules (native, from pig brain tubulin) (pig) (UniProt P02550); assay: single-molecule TIRF microscopy; microtubules attached to the flow cell; 10 nM GFP-enzyme; buffer 5 with 160 mM NaCl (ionic strength 0.225 M); 1 mM ATP; mono-exponential lifetime; settings: for landing rate: scale: (10 µm)^−1 ·
[5] = molecular target: microtubules (native, from pig brain tubulin) (pig) (UniProt P02550); assay: single-molecule TIRF microscopy; microtubules attached to the flow cell by anti-tubulin antibody; 5–10 nM GFP-enzyme in solution; 1 mM ATP-γS; landing rates and dwell times from kymographs; settings: for landing rate: scale: (10 µm)^−1 ·
[6] = molecular target: microtubules (native, from pig brain tubulin) (pig) (UniProt P02550); assay: single-molecule TIRF microscopy; microtubules attached to the flow cell; 10 nM GFP-enzyme; buffer 5 with 80 mM NaCl (ionic strength 0.145 M); 1 mM ATP; dwell time is a mean, not an exponential fit; settings: for landing rate: scale: (10 µm)^−1 ·
[7] = molecular target: microtubules (native, from pig brain tubulin) (pig) (UniProt P02550); assay: single-molecule TIRF microscopy; microtubules attached to the flow cell; 10 nM GFP-enzyme; buffer 5 with 300 mM NaCl (ionic strength 0.365 M); 1 mM ATP; mono-exponential lifetime; settings: for landing rate: scale: (10 µm)^−1 ·
[8] = molecular target: microtubules (native, from pig brain tubulin) (pig) (UniProt P02550); assay: single-molecule TIRF microscopy; microtubules attached to the flow cell by anti-tubulin antibody; 5–10 nM GFP-enzyme in solution; 1 mM ATP; landing rates and dwell times from kymographs; settings: for landing rate: scale: (10 µm)^−1 ·
[9] = molecular target: microtubules (native, from pig brain tubulin) (pig) (UniProt P02550); assay: single-molecule TIRF microscopy; microtubules attached to the flow cell by anti-tubulin antibody; 5–10 nM GFP-enzyme in solution; 1 mM AMPPNP; landing rates and dwell times from kymographs; dwell times are lower limits; settings: for landing rate: scale: (10 µm)^−1 ·
[10] = molecular target: microtubules (native, from pig brain tubulin) (pig) (UniProt P02550); assay: co-sedimentation; fixed E309Q-katanin concentration, variable microtubule concentrations (native or subtilisin-treated, up to 4 µM); 100,000 g, BRB80, room temperature; SDS-PAGE of supernatants and pellets
[11] = molecular target: subtilisin-treated microtubules (pig) (UniProt P02550); assay: as above
Sequence of subtilisin-treated microtubules (pig) (P02550 whole entry, chain 1 of 2): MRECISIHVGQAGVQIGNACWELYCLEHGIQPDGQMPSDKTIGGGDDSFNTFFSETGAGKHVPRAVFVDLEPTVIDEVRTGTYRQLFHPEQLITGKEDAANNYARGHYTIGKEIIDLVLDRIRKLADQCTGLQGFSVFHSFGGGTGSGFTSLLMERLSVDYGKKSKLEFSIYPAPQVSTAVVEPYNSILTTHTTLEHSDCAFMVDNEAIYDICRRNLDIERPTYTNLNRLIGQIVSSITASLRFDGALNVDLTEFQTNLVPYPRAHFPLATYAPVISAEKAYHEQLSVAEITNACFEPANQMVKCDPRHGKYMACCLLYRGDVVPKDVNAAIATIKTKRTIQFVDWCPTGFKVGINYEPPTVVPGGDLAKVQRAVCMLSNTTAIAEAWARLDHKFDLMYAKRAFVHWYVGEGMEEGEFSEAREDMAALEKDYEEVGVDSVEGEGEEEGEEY
Sequence of subtilisin-treated microtubules (pig) (Q767L7 whole entry, chain 2 of 2, further chain): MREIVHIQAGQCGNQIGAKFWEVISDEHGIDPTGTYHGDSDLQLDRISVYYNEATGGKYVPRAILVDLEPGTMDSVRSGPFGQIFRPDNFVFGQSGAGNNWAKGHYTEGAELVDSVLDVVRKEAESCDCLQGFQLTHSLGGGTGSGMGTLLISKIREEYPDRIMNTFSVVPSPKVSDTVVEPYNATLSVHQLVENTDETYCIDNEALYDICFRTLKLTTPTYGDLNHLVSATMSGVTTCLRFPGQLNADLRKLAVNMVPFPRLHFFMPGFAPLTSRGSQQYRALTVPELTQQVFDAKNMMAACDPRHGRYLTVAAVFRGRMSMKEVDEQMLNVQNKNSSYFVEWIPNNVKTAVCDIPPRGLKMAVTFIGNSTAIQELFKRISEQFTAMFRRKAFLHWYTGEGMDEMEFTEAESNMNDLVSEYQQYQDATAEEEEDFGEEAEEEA

[12] = molecular target: microtubules (native, from pig brain tubulin) (pig) (UniProt P02550); assay: co-sedimentation; fixed katanin construct concentration (1 µM), increasing microtubule concentrations (0 to 10 µM); band density fitted to a Hill function
[13] = molecular target: the molecule itself; assay: non-reducing SDS-PAGE; coiled coil wild type construct under oxidizing conditions (omission of reducing agents), compared with 1 mM mercapto-ethanol

Molecule “spastin E442Q mutant (from UniProt Q9UBP0 227-616) (domain or fragment)” has a stoichiometry N (enzyme∶tubulin) [1] of 2.2, a stoichiometry N (enzyme∶tubulin) [2] of 2.7 and a stoichiometry N (enzyme∶tubulin) [3] of 1.3.

For “wild type spastin (co-sedimentation assays) (from UniProt Q9UBP0 227-616) (domain or fragment)”, the stoichiometry N (enzyme∶tubulin) [1] was 2.1 and the stoichiometry N (enzyme∶tubulin) [3] was 1.4.

In the case of “GFP-FLAG HsKatanin (full-length katanin p60) (from UniProt O75449 1-491) (enzyme)”, the stoichiometry N (enzyme∶tubulin) [1] is reported as 2.8, the dwell time [4] is reported as 5.6 s and the koff/kon [4] is reported as 2.82 10 nM 10 µm. The landing rate [4] was 4.64, the dwell time [5] was 10.1 s and the koff/kon [5] was 0.684 10 nM 10 µm. For the same molecule, the landing rate [5] was 8.73, the dwell time [6] was 7.3 s and the koff/kon [6] was 0.609 10 nM 10 µm. For the same molecule, the landing rate [6] was 15.8, the dwell time [7] was 2.5 s and the koff/kon [7] was 13.6 10 nM 10 µm. The landing rate [7] was 1.93, the dwell time [8] was 4.02 s and the koff/kon [8] was 1.06 10 nM 10 µm. The landing rate [8] was 14.1, the dwell time [9] was > 246 s and the koff/kon [9] was 0.118 10 nM 10 µm. It also gave a landing rate [9] of 2.06 and a stoichiometry N (enzyme∶tubulin) [3] of 1.1.

With “katanin E309Q (Walker B mutant) (from UniProt O75449 1-491) (enzyme)” the stoichiometry N (enzyme∶tubulin) [1] was 2.8, the half-maximal saturation (microtubule concentration) [10] was 0.4 µM and the fold reduction of affinity against native microtubules [11] was > 10 fold. For the same molecule, the fraction bound at 4 µM microtubules [11] was < 0.33, the stoichiometry N (enzyme∶tubulin) [2] was 3 and the stoichiometry N (enzyme∶tubulin) [3] was 1.1.

B1: GFP-Δ227 HsSpastin (domain or fragment)
chain: SESGAVPKRKDPLTHTSNSLPRSKTVMKTGSAGLSGHHRAPSYSGLSMVSGVKQGSGPAPTTHKGTPKTNRTNKPSTPTTATRKKKDLKNFRNVDSNLANLIMNEIVDNGTAVKFDDIAGQDLAKQALQEIVILPSLRPELFTGLRAPARGLLLFGPPGNGKTMLAKAVAAESNATFFNISAASLTSKYVGEGEKLVRALFAVARELQPSIIFIDEVDSLLCERREGEHDASRRLKTEFLIEFDGVQSAGDDRVLVMGATNRPQELDEAVLRRFIKRVYVSLPNEETRLLLLKNLLCKQGSPLTQKELAQLARMTDGYSGSDLTALAKDAALGPIRELKPEQVKNMSASEMRNIRLSDFTESLKKIKRSVSPQTLEAYIRWNKDFGDTTV
B1 was tested, and the dwell time [4] was 6.4 s, the landing rate [4] was 4.07 and the dwell time [5] was 55.7 s. The landing rate [5] was 21.2, the dwell time [6] was 9.6 s and the landing rate [6] was 24.2. The dwell time [7] was 4.2 s, the landing rate [7] was 1.61 and the dwell time [8] was 10.1 s. For the same molecule, the landing rate [8] was 22.7, the dwell time [9] was > 254 s and the landing rate [9] was 13.4.

B2: Kat12 (domain or fragment)
chain: MSLLMISENVKLAREYALLGNYDSAMVYYQGVLDQMNKYLYSVKDTYLQQKWQQVWQEINVEAKHVKDIMKTLESFKLDSTPLKAAQHDLPASEGEVWSMPVPVERRPSPGPRKRQSSQYSDPKSHGNRPSTTVRVHRSSAQNVHNDRGKAVRCREKKEQNKGREEKNKSPAAVTEPETNK
With B2 the half-maximal saturation (microtubule concentration) [12] was 0.34 µM.

B3: Kat2 (domain or fragment)
chain: WQEINVEAKHVKDIMKTLESFKLDSTPLKAAQHDLPASEGEVWSMPVPVERRPSPGPRKRQSSQYSDPKSHGNRPSTTVRVHRSSAQNVHNDRGKAVRCREKKEQNKGREEKNKSPAAVTEPETNK
Work on B3 yielded a half-maximal saturation (microtubule concentration) [12] of 0.4 µM.

B4: coiled-coil-Δ227 HsSpastin construct (wild type) (other)
chain: AEECKRRYEKEKEKNARLKGKVEKLEIELARWRASESGAVPKRKDPLTHTSNSLPRSKTVMKTGSAGLSGHHRAPSYSGLSMVSGVKQGSGPAPTTHKGTPKTNRTNKPSTPTTATRKKKDLKNFRNVDSNLANLIMNEIVDNGTAVKFDDIAGQDLAKQALQEIVILPSLRPELFTGLRAPARGLLLFGPPGNGKTMLAKAVAAESNATFFNISAASLTSKYVGEGEKLVRALFAVARELQPSIIFIDEVDSLLCERREGEHDASRRLKTEFLIEFDGVQSAGDDRVLVMGATNRPQELDEAVLRRFIKRVYVSLPNEETRLLLLKNLLCKQGSPLTQKELAQLARMTDGYSGSDLTALAKDAALGPIRELKPEQVKNMSASEMRNIRLSDFTESLKKIKRSVSPQTLEAYIRWNKDFGDTTV
modifications: disulphide bridge between the cysteines introduced in the coiled coil domain (oxidizing conditions)
With B4 the “stoichiometry N” value [13] was 2.
